According to patent US20240343800A1 (Merck KGaA, published 2024):

Experiments:
human ROR1 (on cells) [1] = biological target: T1, human ROR1 (on cells) (human, UniProt Q01973 30-937); experiment: cell-based or functional assay
[2] = biological target: T2, cynomolgus CD3 (on cynomolgus pan-T cells) (cynomolgus, UniProt Q95LI5 22-198); experiment: flow cytometry, cynomolgus pan-T cells
T2 construct: whole, on cells
Description: (§1) After 15-minutes of incubation at room temperature, the cells were washed twice with 200 μL of PBS by centrifugation at 500×g for 5 minutes at room temperature and resuspended in […] of 10% goat serum in BD staining buffer (BD Biosciences, Cat No: 554657). […] The plates were then covered with foil to avoid direct light and incubated for 60 minutes at 4° C. […] After incubating for 30 minutes at 4° C., the cells were washed twice with 200 μL of PBS by centrifugation at 500×g for 5 minutes at room temperature and resuspended into 100 μL of fixation buffer (BioLegend, Cat No: 420801). The samples were then analyzed on a flow cytometer for binding signal using FlowJo software. ROR and CD3 binding EC₅₀s (concentration vs mean fluorescence intensity (MFI)) for reference molecules and test bispecific TCEs were obtained using 4-parameter non-linear regression curve fitting in GraphPad Prism.

[3] = biological target: T3, mouse ROR1 (on 4T1 cells engineered to overexpress it) (mouse, UniProt Q9Z139 30-937); experiment: flow cytometry, 4T1-muROR1 cells; reference: 82H02 TCE #4
T3 construct: whole, on cells; also called muROR1; mROR1
Description: as §1

[4] = biological target: T4, human CD3 (on Jurkat T cells or human CD8+ T cells) (human, UniProt P07766 23-207; P09693 23-182; P04234 22-171; P20963 22-164); experiment: flow cytometry, human CD8+ T cells
T4 construct: Entries are printed with signal peptides; also called huCD3; CD3ε
Description: as §1

human ROR1 (on cells) [5] = biological target: T1, human ROR1 (on cells); experiment: flow cytometry, ROR1+ MDA-MB-231 cells
Description: as §1

human ROR1 (on cells) [6] = biological target: T1, human ROR1 (on cells); experiment: cell-based or functional assay; remark: listed apart in the source
human ROR1 (on cells) [7] = biological target: T1, human ROR1 (on cells); experiment: cell-based or functional assay; remark: listed apart in the source
[8] = biological target: T3, mouse ROR1 (on 4T1 cells engineered to …); experiment: flow cytometry; reference: human ROR1 on MDA-MB-231 cells
human ROR1 (on cells) [9] = biological target: T1, human ROR1 (on cells); experiment: flow cytometry, MDA-MB-231 cells; reference: 82H02 TCE #4
human ROR1 (on cells) [10] = biological target: T1, human ROR1 (on cells); experiment: cell-based or functional assay; remark: listed apart in the source
[11] = biological target: T3, mouse ROR1 (on 4T1 cells engineered to …); experiment: flow cytometry, 4T1 cells overexpressing mouse ROR1
Description: as §1

[12] = biological target: T5, human ROR2 (on recombinant cell lines) (human, UniProt Q01974 34-943); experiment: flow cytometry on recombinant cell lines; confirmed by standard ELISA
T5 construct: whole, on cells

[13] = biological target: T6, human Fc-Frizzled-Kringle fusion protein (human Fc fused to the Frizzled and Kringle domains of human ROR1) (human); experiment: yeast surface display sorting
T6 construct: Entry is printed with a leader; also called huFc-frz-KNG
T6 sequence (chain, as listed by the source limits assumed): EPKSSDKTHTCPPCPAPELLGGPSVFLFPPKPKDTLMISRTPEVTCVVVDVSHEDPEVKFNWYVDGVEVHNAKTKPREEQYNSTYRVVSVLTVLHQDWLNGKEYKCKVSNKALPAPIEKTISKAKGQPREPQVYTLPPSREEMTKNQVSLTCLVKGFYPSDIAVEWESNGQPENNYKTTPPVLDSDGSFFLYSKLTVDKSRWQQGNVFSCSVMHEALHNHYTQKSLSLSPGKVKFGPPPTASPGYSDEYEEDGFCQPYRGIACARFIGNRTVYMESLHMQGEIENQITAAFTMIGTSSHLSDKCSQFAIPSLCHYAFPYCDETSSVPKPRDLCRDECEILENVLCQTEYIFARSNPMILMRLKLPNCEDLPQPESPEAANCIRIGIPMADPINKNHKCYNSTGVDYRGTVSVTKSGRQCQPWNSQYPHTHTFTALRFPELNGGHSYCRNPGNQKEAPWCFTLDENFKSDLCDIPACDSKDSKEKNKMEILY

T2 sequence (Q95LI5 22-198): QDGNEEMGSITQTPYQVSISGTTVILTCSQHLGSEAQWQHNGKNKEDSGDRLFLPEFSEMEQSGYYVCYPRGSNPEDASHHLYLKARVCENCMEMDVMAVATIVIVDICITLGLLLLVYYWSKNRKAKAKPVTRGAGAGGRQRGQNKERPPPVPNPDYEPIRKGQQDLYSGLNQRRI
T4 sequence (P07766 23-207 limits assumed, chain 1 of 4): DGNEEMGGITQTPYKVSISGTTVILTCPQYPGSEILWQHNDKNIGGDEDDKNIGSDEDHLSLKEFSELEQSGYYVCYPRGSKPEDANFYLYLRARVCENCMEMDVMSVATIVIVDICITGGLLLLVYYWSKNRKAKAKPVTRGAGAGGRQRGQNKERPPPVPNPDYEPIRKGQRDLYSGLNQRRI
T4 sequence (P09693 23-182 limits assumed, chain 2 of 4): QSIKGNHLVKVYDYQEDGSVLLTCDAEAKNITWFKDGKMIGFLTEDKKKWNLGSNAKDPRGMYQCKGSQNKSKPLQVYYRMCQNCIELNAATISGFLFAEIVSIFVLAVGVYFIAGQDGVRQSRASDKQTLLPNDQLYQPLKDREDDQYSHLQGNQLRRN
T4 sequence (P04234 22-171 limits assumed, chain 3 of 4): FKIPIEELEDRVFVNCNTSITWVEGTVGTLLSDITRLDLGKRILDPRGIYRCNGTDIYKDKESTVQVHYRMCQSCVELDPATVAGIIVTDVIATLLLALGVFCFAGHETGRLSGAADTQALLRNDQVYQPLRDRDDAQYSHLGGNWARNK
T4 sequence (P20963 22-164 limits assumed, chain 4 of 4): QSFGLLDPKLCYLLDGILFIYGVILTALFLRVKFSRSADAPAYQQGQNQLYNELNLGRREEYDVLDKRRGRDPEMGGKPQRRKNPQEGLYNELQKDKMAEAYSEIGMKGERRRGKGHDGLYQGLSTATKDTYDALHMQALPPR

B1: 82H02 TCE #3 (sequence optimized 82H02 bispecific TCE in Format 1A, low ROR1 / high CD3 affinity) (bispecific antibody)
heavy 1: EVQLVESGGGLVQPGGSLKLSCAASGFTFNTYAMNWVRQASGKGLEWVGRIRSKYNNYATYYADSVKGRFTISRDDSKNTLYLQMNSLKTEDTAVYYCVRHGNFGASYVSWFAYWGQGTMVTVSSASTKGPSVFPLAPSSKSTSGGTAALGCLVKDYFPEPVTVSWNSGALTSGVHTFPAVLQSSGLYSLSSVVTVPSSSLGTQTYICNVNHKPSNTKVDKKVEPKSCDKTHTCPPCPAPEAAGGPSVFLFPPKPKDTLMISRTPEVTCVVVDVSHEDPEVKFNWYVDGVEVHNAKTKPREEQYNSTYRVVSVLTVLHQDWLNGKEYKCKVSNKALGAPIEKTISKAKGQPFRPEVHLLPPSREEMTKNQVSLTCLARGFYPKDIAVEWESNGQPENNYKTTPSRQEPSQGTTTFAVTSKLTVDKSRWQQGNVFSCSVMHEALHNHYTQKTISLSPGK
heavy 2: EIVLTQSPATLSLSPGERATLSCRASQSVSSYLAWYQQKPGQAPRLLIYDASNRATGIPARFSGSGSGTDFTLTISSLEPEDFAVYYCQQRSNWPPFTFGQGTRLEIKGGGGSGGGGSGGGGSGGGGSEVQLLESGGGLVQPGGSLRLSCAASGFTFTSYAMSWVRQAPGKGLEWVSTISGSGGGTYYTDSVKGRFTISRDNSKNTLYLQMNSLRAEDTAVYYCAQGSSIFDYWGQGTLVTVSSEPKSSDKTHTCPPCPAPEAAGGPSVFLFPPKPKDTLMISRTPEVTCVVVDVSHEDPEVKFNWYVDGVEVHNAKTKPREEQYNSTYRVVSVLTVLHQDWLNGKEYKCKVSNKALGAPIEKTISKAKGQPREPQVYTLPPPSEELALNELVTLTCLVKGFYPSDIAVEWLQGSQELPREKYLTWAPVLDSDGSFFLYSILRVAAEDWKKGDTFSCSVMHEALHNHYTQKSLDRSPGKGGGGSGGGGSGGGGSGGGGSEIVLTQSPATLSLSPGERATLSCRASQSVSSYLAWYQQKPGQAPRLLIYDASNRATGIPARFSGSGSGTDFTLTISSLEPEDFAVYYCQQRSNWPPFTFGQGTRLEIKGGGGSGGGGSGGGGSGGGGSEVQLLESGGGLVQPGGSLRLSCAASGFTFTSYAMSWVRQAPGKGLEWVSTISGSGGGTYYTDSVKGRFTISRDNSKNTLYLQMNSLRAEDTAVYYCAQGSSIFDYWGQGTLVTVSS
light: QAVVTQEPSLTVSPGGTVTLTCRSSTGAVTTSNYANWVQQKPGQAPRGLIGGTNKRAPGTPARFSGSLLGGKAALTLSGVQPEDEAEYYCALWYSNLWVFGGGTKLTVLGQPKAAPSVTLFPPSSEELQANKATLVCLISDFYPGAVTVAWKADSSPVKAGVETTTPSKQSNNKYAASSYLSLTPEQWKSHRSYSCQVTHEGSTVEKTVAPTECS
notes: also called 82H02 #3; 82H02 VL1.06x1F3.5-VH1.03
**Q.** For B1, which “IFNγ release AUC, PBMCs: MDA-MB-231-0.2” value (human ROR1 (on cells) [1]) is on record?
**A.** The value was 1.29e+06.

**Q.** What about the “IFNγ release AUC, PBMCs: MDA-MB-231-0.4” value (human ROR1 (on cells) [1]) of the same binder?
**A.** The value was 1.68e+06.

**Q.** And the “IFNγ release AUC, PBMCs: MDA-MB-231-0.6” value (human ROR1 (on cells) [1])?
**A.** Its value is 1.62e+06.

**Q.** What about the “IFNγ release AUC, PBMCs: MDA-MB-231-1.3” value (human ROR1 (on cells) [1]) of the same binder?
**A.** The value was 4.32e+06.

**Q.** And the “IFNγ release AUC, PBMCs: MDA-MB-231-7” value (human ROR1 (on cells) [1])?
**A.** Its value is 4.43e+06.

**Q.** What about the “IFNγ release EC50, PBMCs: MDA-MB-231-0.2” value (human ROR1 (on cells) [1]) of the same binder?
**A.** The value was 0.202 nM.

**Q.** What about the “IFNγ release EC50, PBMCs: MDA-MB-231-0.4” value (human ROR1 (on cells) [1]) of the same binder?
**A.** Its value is 0.167 nM.

**Q.** What about the “IFNγ release EC50, PBMCs: MDA-MB-231-0.6” value (human ROR1 (on cells) [1]) of the same binder?
**A.** Its value is 0.107 nM.

**Q.** And the “IFNγ release EC50, PBMCs: MDA-MB-231-1.3” value (human ROR1 (on cells) [1])?
**A.** Its value is 0.0308 nM.

**Q.** What about the “IFNγ release EC50, PBMCs: MDA-MB-231-7” value (human ROR1 (on cells) [1]) of the same binder?
**A.** Its value is 0.0271 nM.

**Q.** What about the “IFNγ release Emax, PBMCs: MDA-MB-231-0.2” value (human ROR1 (on cells) [1]) of the same binder?
**A.** Its value is 1830%.

**Q.** What about the “IFNγ release Emax, PBMCs: MDA-MB-231-0.4” value (human ROR1 (on cells) [1]) of the same binder?
**A.** The value was 2250%.

**Q.** And the “IFNγ release Emax, PBMCs: MDA-MB-231-0.6” value (human ROR1 (on cells) [1])?
**A.** The value was 3160%.

**Q.** And the “IFNγ release Emax, PBMCs: MDA-MB-231-1.3” value (human ROR1 (on cells) [1])?
**A.** The value was 4680%.

**Q.** And the “IFNγ release Emax, PBMCs: MDA-MB-231-7” value (human ROR1 (on cells) [1])?
**A.** Its value is 4730%.

**Q.** What about the EC50 [2] of the same binder?
**A.** Its EC50 is 4.4 nM.

**Q.** And the “fold difference in ROR1 binding affinity against 82H02 TCE #4” value [3]?
**A.** The value was roughly 2 fold.

**Q.** What about the EC50 [4] of the same binder?
**A.** Its EC50 is 3 nM.

**Q.** What about the EC50 (human ROR1 (on cells) [5]) of the same binder?
**A.** Its EC50 is 211 nM.

**Q.** And the “IFNγ release EC50, PBMCs: MDA-MB-231” value (human ROR1 (on cells) [6])?
**A.** The value was 425 nM.

**Q.** And the “Max IFNγ, PBMCs: MDA-MB-231” value (human ROR1 (on cells) [6])?
**A.** Its value is 881 pg/mL.

**Q.** What about the “TDCC EC50, PBMCs: MDA-MB-231” value (human ROR1 (on cells) [7]) of the same binder?
**A.** Its value is 148 nM.

**Q.** And the “fold difference in apparent ROR1 binding affinity between human and mouse ROR1” value [8]?
**A.** Its value is roughly 5 fold.

**Q.** What about the “fold difference in ROR1 binding affinity against 82H02 TCE #4” value (human ROR1 (on cells) [9]) of the same binder?
**A.** Its value is roughly 3 fold.

**Q.** What about the “TDCC AUC, PBMCs: MDA-MB-231-0.2” value (human ROR1 (on cells) [10]) of the same binder?
**A.** Its value is 31300.

**Q.** And the “TDCC AUC, PBMCs: MDA-MB-231-0.4” value (human ROR1 (on cells) [10])?
**A.** Its value is 44800.

**Q.** And the “TDCC AUC, PBMCs: MDA-MB-231-0.6” value (human ROR1 (on cells) [10])?
**A.** The value was 51000.

**Q.** What about the “TDCC AUC, PBMCs: MDA-MB-231-1.3” value (human ROR1 (on cells) [10]) of the same binder?
**A.** Its value is 61700.

**Q.** What about the “TDCC AUC, PBMCs: MDA-MB-231-7” value (human ROR1 (on cells) [10]) of the same binder?
**A.** Its value is 71400.

**Q.** What about the “TDCC EC50, PBMCs: MDA-MB-231-0.2” value (human ROR1 (on cells) [10]) of the same binder?
**A.** Its value is 0.0181 nM.

**Q.** What about the “TDCC EC50, PBMCs: MDA-MB-231-0.4” value (human ROR1 (on cells) [10]) of the same binder?
**A.** The value was 0.0153 nM.

**Q.** What about the “TDCC EC50, PBMCs: MDA-MB-231-0.6” value (human ROR1 (on cells) [10]) of the same binder?
**A.** The value was 0.0138 nM.

**Q.** What about the “TDCC EC50, PBMCs: MDA-MB-231-1.3” value (human ROR1 (on cells) [10]) of the same binder?
**A.** The value was 0.0102 nM.

**Q.** What about the “TDCC EC50, PBMCs: MDA-MB-231-7” value (human ROR1 (on cells) [10]) of the same binder?
**A.** Its value is 0.00546 nM.

**Q.** What about the “TDCC Emax, PBMCs: MDA-MB-231-0.2” value (human ROR1 (on cells) [10]) of the same binder?
**A.** Its value is 33.1%.

**Q.** And the “TDCC Emax, PBMCs: MDA-MB-231-0.4” value (human ROR1 (on cells) [10])?
**A.** Its value is 47.8%.

**Q.** And the “TDCC Emax, PBMCs: MDA-MB-231-0.6” value (human ROR1 (on cells) [10])?
**A.** Its value is 53.8%.

**Q.** What about the “TDCC Emax, PBMCs: MDA-MB-231-1.3” value (human ROR1 (on cells) [10]) of the same binder?
**A.** Its value is 63.2%.

**Q.** And the “TDCC Emax, PBMCs: MDA-MB-231-7” value (human ROR1 (on cells) [10])?
**A.** Its value is 72.8%.

**Q.** And the EC50 [11]?
**A.** Its EC50 is 1040 nM.

B2: Clone 82H02 (from a Fab yeast surface display library of immunized transgenic rats) (Fab, V domains shown)
VH: EVQLLESGGGLVQPGGSLRLSCAASGFTFTSYAMSWVRQAPGKGLEWVSTISGSGGGTYYTDSVKGRFTISRDNSKNTLYLQMNSLRAEDTAVYYCAQGSSIFDYWGQGTLVTVSS
VL: EIVLTQSPATLSLSPGERATLSCRASQSVSSYLAWYQQKPGQAPRLLIYDASNRATGIPARFSGSGSGTDFTLTISSLEPEDFAVYYCQQRSNWPPCTFGQGTRLEIK
**Q.** Does B2 bind [12]?
**A.** Result: no binding

**Q.** Does B2 bind [13]?
**A.** Result: no binding
